From patent publication US20190169249A1 (SHATTUCK LABS, published 2019)
Blank lines part the entries; values can stand above or below the binder they belong to.

Tests used:
[1] = molecular target: T1, CSF1R-Fc (commercially available, single-sided control protein) (UniProt P07333 20-512, limits assumed); assay: SPR, BioRad ProteOn XPR 360
T1 construct: Recombinant control protein; not shown: Fc part of the bought protein; not described
Description: The binding affinity of the different domains of the hCSF1R-Fc-CD40L chimeric protein was measured by the surface plasmon resonance (SPR) using the BioRad ProteOn XPR 360 system. Specifically, the affinity of the chimeric protein for human CSF1 and CD40 was determined and compared to recombinant control proteins, and the results are shown in the Table below: […]

CD40-His = molecular target: T2, CD40-His (human, UniProt P25942 21-193); assay: bio-layer interferometry (Octet); ligand column: hCD40-his
T2 construct: Octet (biolayer interferometry) reagent; also called recombinant human CD40; not shown: His tag

[2] = molecular target: T3, murine CD40 overexpressed on CHO-K1 cells (CHOK1/CD40) (murine, UniProt P27512 20-289); assay: flow cytometry on CHOK1/CD40 cells; CHOK1/CD40 cells, flow cytometry
T3 construct: whole, on cells; also called mCD40
T3 sequence (looked up): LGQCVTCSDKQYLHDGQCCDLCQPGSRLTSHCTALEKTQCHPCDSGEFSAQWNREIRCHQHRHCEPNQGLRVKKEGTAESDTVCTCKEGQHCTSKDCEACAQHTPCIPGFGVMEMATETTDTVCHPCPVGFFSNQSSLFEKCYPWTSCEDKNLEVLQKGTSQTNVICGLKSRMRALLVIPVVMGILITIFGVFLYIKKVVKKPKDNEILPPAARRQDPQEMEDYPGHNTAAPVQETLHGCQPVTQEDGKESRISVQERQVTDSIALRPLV
Description: For cell binding assays, immortalized cell lines were engineered to stably express CD40 (CHOK1/CD40). Increasing concentrations of the murine CSF1R-Fc-CD40L chimeric protein were incubated with the over-expressing (CHOK1/CD40) cell line for 2 hours. Cells were collected, washed, and stained with antibodies for the detection of chimeric protein binding by flow cytometry.
As a negative control, there was no detectable binding to the parental (non-CD40 expressing) CHOK1 cell line.

T1 sequence (P07333 20-512 limits assumed): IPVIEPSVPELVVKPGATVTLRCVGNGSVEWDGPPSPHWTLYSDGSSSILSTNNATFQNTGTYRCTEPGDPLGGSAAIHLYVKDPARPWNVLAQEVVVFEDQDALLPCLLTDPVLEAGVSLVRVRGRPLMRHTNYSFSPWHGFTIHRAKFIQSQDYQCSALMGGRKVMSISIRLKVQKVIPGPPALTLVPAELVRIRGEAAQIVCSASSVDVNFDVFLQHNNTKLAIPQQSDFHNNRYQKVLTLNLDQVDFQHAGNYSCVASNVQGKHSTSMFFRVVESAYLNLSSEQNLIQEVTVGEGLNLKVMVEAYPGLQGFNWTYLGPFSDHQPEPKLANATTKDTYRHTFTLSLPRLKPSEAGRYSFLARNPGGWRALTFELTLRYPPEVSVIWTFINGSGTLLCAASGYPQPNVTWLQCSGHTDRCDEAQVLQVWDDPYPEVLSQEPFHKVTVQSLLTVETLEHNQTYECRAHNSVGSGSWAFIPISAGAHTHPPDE
T2 sequence (P25942 21-193 limits assumed): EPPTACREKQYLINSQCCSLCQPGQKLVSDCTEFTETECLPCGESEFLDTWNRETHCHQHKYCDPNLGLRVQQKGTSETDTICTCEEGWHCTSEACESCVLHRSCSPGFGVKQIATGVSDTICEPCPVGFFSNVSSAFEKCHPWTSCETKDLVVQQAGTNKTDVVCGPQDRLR

Kd [1]: 0.275 nM | koff [1]: 0.000335 s⁻¹ | kon [1]: 1.22e+06 M⁻¹ s⁻¹
B1: recombinant human CSF1 protein (ligand, UniProt P09603 33-190, looked up)
chain: EEVSEYCSHMIGSGHLQSLQRLIDSQMETSCQITFEFVDQEQLKDPVCYLKKAFLLVQDIMEDTMRFRDNTPNAIAIVQLQELSLRLKSCFTKDYEEHDKACVRTFYETPLQLLEKVKNVFNETKNLLDKDWNIFSKNCNNSFAECSSQDVVTKPDCN
notes: the construct is not described

Kd (CD40-His): 2.42 nM
B2: CD40L-Fc (commercially available, single-sided control protein) (Fc fusion, UniProt P29965 113-261, looked up)
chain: MQKGDQNPQIAAHVISEASSKTTSVLQWAEKGYYTMSNNLVTLENGKQLTVKRQGLYYIYAQVTFCSNREASSQAPFIASLCLKSPGRFERILLRAANTHSSAKPCGQQSIHLGGVFELQPGASVFVNVTDPSQVSHGTGFTSFGLLKL
notes: Recombinant control protein; not shown: Fc part of the bought protein

EC50 [2]: 91.1 nM
B3: murine CSF1R-Fc-CD40L chimeric protein (Fc fusion)
chain (part 1 of 2): APVIEPSGPELVVEPGETVTLRCVSNGSVEWDGPISPYWTLDPESPGSTLTTRNATFKNTGTYRCTELEDPMAGSTTIHLYVKDPAHSWNLLAQEVTVVEGQEAVLPCLITDPALKDSVSLMREGGRQVLRKTVYFFSPWRGFIIRKAKVLDSNTYVCKTMVNGRESTSTGIWLKVNRVHPEPPQIKLEPSKLVRIRGEAAQIVCSATNAEVGFNVILKRGDTKLEIPLNSDFQDNYYKKVRALSLNAVDFQDAGIYSCVASNDVGTRTATMNFQVVESAYLNLTSEQSLLQEVSVGDSLILTVHADAYPSIQHYNWTYLGPFFEDQRKLEFITQRAIYRYTFKLFLNRVKASEAGQYFLMAQNKAGWNNLTFELTLRYPPEVSVTWMPVNGSDVLFCDVSGYPQPSVTWMECRGHTDRCDEAQALQVWNDTHPEVLSQKPFDKVIIQSQLPIGTLKHNMTYFCKTHNSVGNSSQYFRAVSLGQSKQLPDESLFTP
chain (part 2 of 2): HRRLDKVEEEVNLHEDFVFIKKLKRCNKGEGSLSLLNCEEMRRQFEDLVKDITLNKEEKKENSFEMQRGDEDPQIAAHVVSEANSNAASVLQWAKKGYYTMKSNLVMLENGKQLTVKREGLYYVYTQVTFCSNREPSSQRPFIVGLWLKPSSGSERILLKAANTHSSSQLCEQQSVHLGGVFELQAGASVFVNVTEASQVIHRVGFSSFGLLKL
notes: 'constructed as described above in the Detailed Description and in U.S. 62/464,002'; also called mCSF1R-Fc-CD40L; mCD115-Fc-CD40L; not shown: Fc linker
